We go through one molecule from publication PMC8242032, “Non-canonical function of DGCR8 in DNA double-strand break repair signaling and tumor radioresistance” (Nature Communications, 2021).

This assay deals with T1, MBP-DGCR8 (human, UniProt Q8WYQ5 1-773).
T1 construct: DGCR8, human, full-length, in an MBP-tagged destination vector; also called purified DGCR8; source: bacterially purified (eluted with maltose)
T1 sequence (looked up): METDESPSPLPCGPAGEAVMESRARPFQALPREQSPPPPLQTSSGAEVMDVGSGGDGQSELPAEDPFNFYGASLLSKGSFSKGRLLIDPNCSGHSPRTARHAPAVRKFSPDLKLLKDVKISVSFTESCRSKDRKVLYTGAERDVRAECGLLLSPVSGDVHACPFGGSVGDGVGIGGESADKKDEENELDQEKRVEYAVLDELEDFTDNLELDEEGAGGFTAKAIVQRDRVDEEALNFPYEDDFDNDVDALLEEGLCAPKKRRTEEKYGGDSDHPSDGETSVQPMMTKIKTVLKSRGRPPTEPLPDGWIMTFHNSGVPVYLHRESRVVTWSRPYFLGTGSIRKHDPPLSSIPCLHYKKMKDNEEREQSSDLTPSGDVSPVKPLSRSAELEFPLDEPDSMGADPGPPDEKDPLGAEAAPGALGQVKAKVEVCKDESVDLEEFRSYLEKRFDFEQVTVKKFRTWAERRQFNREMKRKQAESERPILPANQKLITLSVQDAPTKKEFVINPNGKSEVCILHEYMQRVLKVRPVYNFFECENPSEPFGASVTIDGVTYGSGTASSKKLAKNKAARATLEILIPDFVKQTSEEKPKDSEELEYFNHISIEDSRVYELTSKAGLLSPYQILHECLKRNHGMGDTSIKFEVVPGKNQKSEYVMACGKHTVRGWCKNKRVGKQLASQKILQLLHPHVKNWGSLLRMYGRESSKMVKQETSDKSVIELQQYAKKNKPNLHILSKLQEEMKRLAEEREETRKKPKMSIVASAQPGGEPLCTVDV
The assay can be described thus: pull-down; SFB-USP51 (or SFB-GFP) purified from transfected HEK293T cells, retained on S-protein beads and incubated with purified MBP-DGCR8, 4 °C overnight; washed with NETN buffer. Particulars: both partners purified.

B1: SFB-USP51 (enzyme, human, UniProt Q70EK9 1-711, looked up)
chain: MAQVRETSLPSGSGVRWISGGGGGASPEEAVEKAGKMEEAAAGATKASSRREAEEMKLEPLQEREPAPEENLTWSSSGGDEKVLPSIPLRCHSSSSPVCPRRKPRPRPQPRARSRSQPGLSAPPPPPARPPPPPPPPPPPAPRPRAWRGSRRRSRPGSRPQTRRSCSGDLDGSGDPGGLGDWLLEVEFGQGPTGCSHVESFKVGKNWQKNLRLIYQRFVWSGTPETRKRKAKSCICHVCSTHMNRLHSCLSCVFFGCFTEKHIHKHAETKQHHLAVDLYHGVIYCFMCKDYVYDKDIEQIAKETKEKILRLLTSTSTDVSHQQFMTSGFEDKQSTCETKEQEPKLVKPKKKRRKKSVYTVGLRGLINLGNTCFMNCIVQALTHIPLLKDFFLSDKHKCIMTSPSLCLVCEMSSLFHAMYSGSRTPHIPYKLLHLIWIHAEHLAGYRQQDAHEFLIAILDVLHRHSKDDSGGQEANNPNCCNCIIDQIFTGGLQSDVTCQACHSVSTTIDPCWDISLDLPGSCATFDSQNPERADSTVSRDDHIPGIPSLTDCLQWFTRPEHLGSSAKIKCNSCQSYQESTKQLTMKKLPIVACFHLKRFEHVGKQRRKINTFISFPLELDMTPFLASTKESRMKEGQPPTDCVPNENKYSLFAVINHHGTLESGHYTSFIRQQKDQWFSCDDAIITKATIEDLLYSEGYLLFYHKQGLEKD
notes: USP51, human DUB ORF in the pBabe-SFB vector; also called SFB-tagged USP51; source: HEK293T, transfected, in lysate; purified from transfected HEK293T cells
As to B1, the binding result is on record as “binds”.
